According to paper PMC3668366:

Key:
[1] = target: CEBPB B-ZIP domain;ATF4 B-ZIP domain (mouse;mouse, UniProt P28033;Q06507 222-285;276-339, |); assay: EMSA
CEBPB B-ZIP domain = CEBPB B-ZIP domain (mouse, UniProt P28033 222-285); assay: EMSA
CEBPB B-ZIP domain, sequence (P28033 222-285): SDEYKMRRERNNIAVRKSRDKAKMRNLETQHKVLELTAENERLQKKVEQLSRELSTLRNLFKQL

CEBPB B-ZIP domain;ATF4 B-ZIP domain, sequence (P28033 222-285, chain 1 of 2): as the sequence (P28033 222-285) above
CEBPB B-ZIP domain;ATF4 B-ZIP domain, sequence (Q06507 276-339, chain 2 of 2): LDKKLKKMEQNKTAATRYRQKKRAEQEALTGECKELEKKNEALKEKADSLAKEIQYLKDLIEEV

Binder	binding signal [1]	apparent K (half saturation) (CEBPB B-ZIP domain)
Hetero (CGAT|GCAA) unmethylated (dsDNA) DNA 1: GTCAGTCAGACGATGCAATATAGGTCAG DNA 2: CTGACCTATATTGCATCGTCTGACTGAC	10 fold weaker than methylated N2	–
10-mer-A (M) (dsDNA, 5mC at position 14 of each strand) DNA 1: GTCAGTCAGATTGCGCAATATAGGTCAG DNA 2: CTGACCTATATTGCGCAATCTGACTGAC	–	~5 nM
